The numbers were not newly measured in publication PMC6273919, which cites them from elsewhere.

The data set has as its target NF-kappa-B p50 (Homo sapiens) (UniProt P19838).
UniProt P19838, sequence (P19838 1-433): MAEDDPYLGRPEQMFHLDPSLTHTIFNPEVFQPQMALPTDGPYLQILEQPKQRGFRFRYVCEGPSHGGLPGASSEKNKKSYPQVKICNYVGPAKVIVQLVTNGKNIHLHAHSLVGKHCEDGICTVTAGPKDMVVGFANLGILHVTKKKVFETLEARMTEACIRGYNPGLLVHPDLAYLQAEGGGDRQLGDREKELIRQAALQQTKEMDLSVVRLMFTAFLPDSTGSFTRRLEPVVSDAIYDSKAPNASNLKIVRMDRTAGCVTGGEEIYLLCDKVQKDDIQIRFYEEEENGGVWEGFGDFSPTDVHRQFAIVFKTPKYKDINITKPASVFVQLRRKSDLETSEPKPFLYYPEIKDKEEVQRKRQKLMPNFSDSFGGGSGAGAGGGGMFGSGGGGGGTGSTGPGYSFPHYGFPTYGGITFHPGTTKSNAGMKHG

In general, Kd refers to the equilibrium constant for the complex coming apart. As to Melittin (from UniProt P01501), the dissociation constant (Kd) is 12 nM.
